In the supplement of paper PMC7877785:
± gives the uncertainty stated by the source.

Test: self-splicing fitness, log relative to wild type (ln ratio); higher = more splicing; Tetrahymena group I intron in knt gene, E. coli kanamycin selection, DiMSum; sequences stand for … in CUCUCU…GGAGGGAAAAGUUAUCAGGCAUGCACCUGGUAGCUAGUCUUUAAACCAAUAGAUUGCAUCGGUUUAAAAGGCAAGACCGUCAAAUUGCGGGAAAGGGGUCAACAGCCGUUCAGUACCAAGUCUCAGGGGAAACUUUGAGAUGGCCUUGCAAAGGGUAUGGUAAUAAGCUGACGGACAUGGUCCUAACCACGCAGCCAAGUCCUAAGUCAACAGAUCUUCUGUUGAUAUGGAUGCAGUUCACAGACUAAAUGUCGGUCGGGGAAGAUGUAUUCUUCUCAUAAGAUAUAGUCGGACCUCUCCUUAAUGGGAGCUAGCGGAUGAAGUGAUGCAACACUGGAGCCGCUGGGAACUAAUUUGUAUGCGAAAGUAUAUUGAUUAGUUUUGGAGUACUCGUGGUCG
How it was run: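 Pooled colonies went to amplicon sequencing on an Illumina HiSeq 2500 after six replicate transformations. The plates were LB agar with 100 μg/mL carbenicillin, 50 μM IPTG and 0.2% rhamnose, with or without 25 μg/mL kanamycin, incubated overnight at 37°C or 30°C. The E. coli BL21(DE3) library had all eight P1ex-region intron nucleotides randomised, the intron placed in the knt kanamycin-resistance gene on pET-22b(+). DiMSum fitness is the error-weighted combination of replicate fold changes, kanamycin against none, normalised to wild type.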

Sequence	self-splicing fitness (ln) (30 °C)	self-splicing fitness (ln) (37 °C)
GGUCAGCAAUAUUACGGUGC	-0.28 ± 0.075	0.535 ± 0.11
GGUCAGCAAUAUUACGUACU	-1.84 ± 0.12	-0.914 ± 0.13
GGUCAGCAAUAUUACGUAGC	-0.572 ± 0.067	-0.268 ± 0.081
GGUCAGCAAUAUUACGUCUG	-0.665 ± 0.094	-0.321 ± 0.11
GGUCAGCAAUAUUACGUGAC	-2.08 ± 0.17	-2 ± 0.24
GGUGAGCAAUAUUACGACAA	-1.2 ± 0.26	-0.76 ± 0.3
GGUGAGCAAUAUUACGACGG	-2.18 ± 0.29	-1.74 ± 0.3
GGUGAGCAAUAUUACGAGCC	–	-1.52 ± 0.43
GGUGAGCAAUAUUACGAGUC	-1.67 ± 0.24	-1.83 ± 0.37
GGUGAGCAAUAUUACGAUAC	-2.03 ± 0.16	-0.811 ± 0.15
GGUGAGCAAUAUUACGAUCG	-0.341 ± 0.095	0.221 ± 0.13
GGUGAGCAAUAUUACGAUGC	-1.6 ± 0.13	-0.514 ± 0.19
GGUGAGCAAUAUUACGCAGU	-2.13 ± 0.32	-2.45 ± 0.41
GGUGAGCAAUAUUACGCCUG	–	-1.47 ± 0.28
GGUGAGCAAUAUUACGCGCU	-1.7 ± 0.42	–
GGUGAGCAAUAUUACGCUGA	–	-2.84 ± 0.48
GGUGAGCAAUAUUACGCUUA	-3.17 ± 0.35	-1.92 ± 0.33
GGUGAGCAAUAUUACGGGCG	-1.39 ± 0.14	-0.473 ± 0.14
GGUGAGCAAUAUUACGUAAU	-1.71 ± 0.27	-0.991 ± 0.31
GGUGAGCAAUAUUACGUAGU	-3.37 ± 0.23	-2.1 ± 0.29
GGUGAGCAAUAUUACGUCUG	-3.31 ± 0.17	-2.03 ± 0.14
GGUGAGCAAUAUUACGUGAU	-2.45 ± 0.13	-1.71 ± 0.18
GGUGAGCAAUAUUACGUGUU	–	-1.87 ± 0.27
GGUUAGCAAUAUUACGAAUA	-1.94 ± 0.19	-1.85 ± 0.26
GGUUAGCAAUAUUACGAGUA	-4.51 ± 0.46	-1.58 ± 0.2
GGUUAGCAAUAUUACGAUAG	-1.82 ± 0.28	-1.14 ± 0.32
GGUUAGCAAUAUUACGCAUG	-1.89 ± 0.17	-1.57 ± 0.14

Sequence	self-splicing fitness (ln) (30 °C)	self-splicing fitness (ln) (37 °C)
GGUUAGCAAUAUUACGCGGU	-2.85 ± 0.49	-2.36 ± 0.35
GGUUAGCAAUAUUACGCUAA	-1.98 ± 0.41	–
GGUUAGCAAUAUUACGCUCG	-0.367 ± 0.2	0.204 ± 0.28
GGUUAGCAAUAUUACGCUGA	-3.14 ± 0.14	-2.24 ± 0.13
GGUUAGCAAUAUUACGGCGU	-0.725 ± 0.1	0.137 ± 0.13
GGUUAGCAAUAUUACGGGAG	-3.49 ± 0.24	-2.55 ± 0.25
GGUUAGCAAUAUUACGGGCA	-0.0835 ± 0.083	-0.182 ± 0.079
GGUUAGCAAUAUUACGGGGC	–	-2.66 ± 0.4
GGUUAGCAAUAUUACGGGUU	-1.99 ± 0.1	-1.48 ± 0.12
GGUUAGCAAUAUUACGGUGC	-1.07 ± 0.088	-0.186 ± 0.12
GGUUAGCAAUAUUACGGUGG	–	-1.57 ± 0.31
GGUUAGCAAUAUUACGUACA	-0.759 ± 0.11	-0.469 ± 0.11
GGUUAGCAAUAUUACGUGAA	-0.107 ± 0.13	-0.9 ± 0.14
GGUUAGCAAUAUUACGUGGG	-2.93 ± 0.2	-2.54 ± 0.18
GGUUAGCAAUAUUACGUGUC	-1.03 ± 0.097	-0.323 ± 0.12
GGUUAGCAAUAUUACGUUAG	-2.34 ± 0.13	-1.69 ± 0.19
GUAAAGCAAUAUUACGAAUU	-2.11 ± 0.16	-0.966 ± 0.18
GUAAAGCAAUAUUACGACAU	0.272 ± 0.012	0.348 ± 0.032
GUAAAGCAAUAUUACGACGU	0.341 ± 0.11	0.169 ± 0.12
GUAAAGCAAUAUUACGAGCG	-0.0732 ± 0.09	0.212 ± 0.12
GUAAAGCAAUAUUACGAUCG	-0.724 ± 0.075	0.373 ± 0.11
GUAAAGCAAUAUUACGAUGG	-1.81 ± 0.081	-0.952 ± 0.1
GUAAAGCAAUAUUACGCAGG	-1.96 ± 0.12	-0.168 ± 0.14
GUAAAGCAAUAUUACGCCAA	-0.7 ± 0.17	-0.982 ± 0.26
GUAAAGCAAUAUUACGCCAU	-1.89 ± 0.1	-0.44 ± 0.12
GUAAAGCAAUAUUACGCGGA	-1.51 ± 0.086	-1.3 ± 0.11
GUAAAGCAAUAUUACGCUGU	-0.603 ± 0.083	-1.16 ± 0.12

Sequence	self-splicing fitness (ln) (30 °C)	self-splicing fitness (ln) (37 °C)
GUAAAGCAAUAUUACGCUUA	-1.27 ± 0.11	-0.77 ± 0.14
GUAAAGCAAUAUUACGGCCA	-0.497 ± 0.11	0.704 ± 0.17
GUAAAGCAAUAUUACGGCUC	-0.0413 ± 0.071	0.298 ± 0.1
GUAAAGCAAUAUUACGGUCG	-0.377 ± 0.056	-0.0786 ± 0.088
GUAAAGCAAUAUUACGUAGA	-2.33 ± 0.1	-1.32 ± 0.12
GUAAAGCAAUAUUACGUUAU	-2.57 ± 0.14	-1.23 ± 0.17
GUAAAGCAAUAUUACGUUCA	-0.419 ± 0.072	0.177 ± 0.12
GUAAAGCAAUAUUACGUUCG	-0.724 ± 0.061	-0.407 ± 0.084
GUAAAGCAAUAUUACGUUUG	-2.28 ± 0.081	-1.34 ± 0.094
GUACAGCAAUAUUACGACCA	-1.85 ± 0.25	-0.829 ± 0.33
GUACAGCAAUAUUACGACCC	-0.186 ± 0.36	0.979 ± 0.36
GUACAGCAAUAUUACGAGGA	-3.11 ± 0.29	-1.88 ± 0.23
GUACAGCAAUAUUACGAGUA	–	-2.65 ± 0.31
GUACAGCAAUAUUACGCACC	-2.67 ± 0.26	-2.35 ± 0.38
GUACAGCAAUAUUACGCCUA	-1.06 ± 0.099	-0.254 ± 0.09
GUACAGCAAUAUUACGCUAA	-2.37 ± 0.14	-0.948 ± 0.11
GUACAGCAAUAUUACGGACG	-3.05 ± 0.14	-0.547 ± 0.12
GUACAGCAAUAUUACGGACU	-1.74 ± 0.062	-0.781 ± 0.081
GUACAGCAAUAUUACGGCGA	-1.14 ± 0.18	-1.09 ± 0.14
GUACAGCAAUAUUACGGGAU	-3.85 ± 0.15	-2.59 ± 0.13
GUACAGCAAUAUUACGGGCU	-3.98 ± 0.3	-2.1 ± 0.21
GUACAGCAAUAUUACGUAAC	-2.18 ± 0.14	-1.11 ± 0.12
GUACAGCAAUAUUACGUAUA	-1.77 ± 0.11	-1 ± 0.12
GUACAGCAAUAUUACGUCGC	-2.57 ± 0.15	-0.812 ± 0.16
GUACAGCAAUAUUACGUGGG	-3.76 ± 0.13	-3.18 ± 0.14
